Measured values published in US20240228626A1 (IMMUNORIZON, published 2024).

T1: NKG2D on primary NK cells purified from healthy donor's PBMCs (human, UniProt P26718 1-216)
T1 construct: whole, on cells
T1 sequence (looked up): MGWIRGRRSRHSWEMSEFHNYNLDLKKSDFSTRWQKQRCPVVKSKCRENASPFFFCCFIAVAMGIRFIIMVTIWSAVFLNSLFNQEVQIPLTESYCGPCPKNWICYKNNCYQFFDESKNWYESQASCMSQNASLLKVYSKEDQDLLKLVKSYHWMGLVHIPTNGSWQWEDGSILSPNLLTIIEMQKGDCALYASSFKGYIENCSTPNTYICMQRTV


How the values were obtained:
[1] = molecular target: recombinant human NKG2D-ECD-Fc (extracellular domain of NKG2D fused to human Fc) (human) (UniProt P26718); test: ELISA on coated NKG2D-ECD-Fc
[2] = molecular target: cyno-NKG2D/Dap10 over-expressed in CHO cells (cyno) (UniProt P61252); test: FACS on CHO cells over expressing cynoNKG2D
[3] = molecular target: T1, NKG2D on primary NK cells purified from …; test: FACS on primary NK cells, 100 nM and 10 nM
[4] = molecular target: T1, NKG2D on primary NK cells purified from …; test: FACS on cells
[5] = molecular target: NKG2D on primary NK cells purified from healthy donor's PBMCs (human) (UniProt P26718); test: cell-based or functional assay
[6] = molecular target: T1, NKG2D on primary NK cells purified from …; test: FACS on primary NK cells, two concentrations

Sequence of cyno-NKG2D/Dap10 over-expressed in CHO cells (cyno) (P61252 whole entry): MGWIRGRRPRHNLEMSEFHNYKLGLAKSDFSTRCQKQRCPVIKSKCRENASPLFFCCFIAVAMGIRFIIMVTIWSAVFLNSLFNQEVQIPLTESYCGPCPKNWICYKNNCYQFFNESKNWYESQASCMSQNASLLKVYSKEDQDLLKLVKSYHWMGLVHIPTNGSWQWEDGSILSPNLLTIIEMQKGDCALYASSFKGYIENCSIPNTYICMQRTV

| EC50 [1] | EC50 [2] | Binder | other results |
| --- | --- | --- | --- |
| 1.7 nM | 5.9 nM | IM1248 CD3x5T4x NKG2D-cl-10 (L-H) (protein, part only; not given: anti-CD3 Fab, anti-5T4 scFv, linkers, not shown: another chain or arm of the molecule; small tags and cut ends) VL: DIVLTQSPASLAMSLGKRATISCRASESVSIMGTNLINWYQQKLGQPPKLLIYHASNLETGVPARFSGSGSRTDFTLTIDPVEEDDVAVYYCLQGRKIPRTFGGGTKLEIK VH: QVQLQQPGAELVKPGASVKLSCKASGYTFTTYWIQWIKQRPGQGLEWIGEIDPSDIFTNYNQKFKGKATLTVDTSSSTAYMQLSSLTSEDSAVYYCARGVYDGYYVGYFDVWGTGTTVTVSS | – |
| 0.7 nM | 5.3 nM | IM1249 CD3x5T4x NKG2D-cl-10 (H-L) (protein, part only; not given: anti-CD3 Fab, anti-5T4 scFv, linkers, not shown: another chain or arm of the molecule; small tags and cut ends) VH: QVQLQQPGAELVKPGASVKLSCKASGYTFTTYWIQWIKQRPGQGLEWIGEIDPSDIFTNYNQKFKGKATLTVDTSSSTAYMQLSSLTSEDSAVYYCARGVYDGYYVGYFDVWGTGTTVTVSS VL: DIVLTQSPASLAMSLGKRATISCRASESVSIMGTNLINWYQQKLGQPPKLLIYHASNLETGVPARFSGSGSRTDFTLTIDPVEEDDVAVYYCLQGRKIPRTFGGGTKLEIK | – |
| – | – | mAb010 (antibody, V domains shown, Mouse hybridoma mAb, protein A purified; also called IM, NKG2D mouse hybridoma cl- 10; NKG2D-cl-10) VH: QVQLQQPGAELVKPGASVKLSCKASGYTFTTYWIQWIKQRPGQGLEWIGEIDPSDIFTNYNQKFKGKATLTVDTSSSTAYMQLSSLTSEDSAVYYCARGVYDGYYVGYFDVWGTGTTVTVSS VL: DIVLTQSPASLAMSLGKRATISCRASESVSIMGTNLINWYQQKLGQPPKLLIYHASNLETGVPARFSGSGSRTDFTLTIDPVEEDDVAVYYCLQGRKIPRTFGGGTKLEIK | binding result [3]: binds |
| 2.6 nM | 21 nM | IM1244 CD3x5T4x NKG2D-cl-1 (L-H) (protein, part only; not given: anti-CD3 Fab, anti-5T4 scFv, linkers, not shown: another chain or arm of the molecule; small tags and cut ends) VL: DIVLTQSPASLAVSLGQRAIISCKASQSVSFAGSNLMHWYQQKPGQQPKLLIYRASNLEVGVPTRFSGSGSGTDFTLNIHPVDEDDAATYYCQQSREYPFTFGSGTKLEIK VH: EVQLQQSGPELVKPGASVKISCKASAFNFTSYYLHWVKQGPGQGLEWIGWIYPGSGDTKYNEKFKGKATLTADTSSSAANMKLSSLTSEDSAVYYCARNRIFDSYYVDSMDYWGQGTSVTVSS | – |
| 1.1 nM | 13 nM | IM1245 CD3x5T4x NKG2D-cl-1 (H-L) (protein, part only; not given: anti-CD3 Fab, anti-5T4 scFv, linkers, not shown: another chain or arm of the molecule; small tags and cut ends) VH: EVQLQQSGPELVKPGASVKISCKASAFNFTSYYLHWVKQGPGQGLEWIGWIYPGSGDTKYNEKFKGKATLTADTSSSAANMKLSSLTSEDSAVYYCARNRIFDSYYVDSMDYWGQGTSVTVSS VL: DIVLTQSPASLAVSLGQRAIISCKASQSVSFAGSNLMHWYQQKPGQQPKLLIYRASNLEVGVPTRFSGSGSGTDFTLNIHPVDEDDAATYYCQQSREYPFTFGSGTKLEIK | – |
| – | – | mAb001 (antibody, V domains shown, Mouse hybridoma mAb, protein A purified; also called IM, NKG2D mouse hybridoma cl- 1; NKG2D-cl-1) VH: EVQLQQSGPELVKPGASVKISCKASAFNFTSYYLHWVKQGPGQGLEWIGWIYPGSGDTKYNEKFKGKATLTADTSSSAANMKLSSLTSEDSAVYYCARNRIFDSYYVDSMDYWGQGTSVTVSS VL: DIVLTQSPASLAVSLGQRAIISCKASQSVSFAGSNLMHWYQQKPGQQPKLLIYRASNLEVGVPTRFSGSGSGTDFTLNIHPVDEDDAATYYCQQSREYPFTFGSGTKLEIK | binding result [3]: binds |
| – | 15 nM | IM1246 CD3x5T4x NKG2D-cl-9 (L-H) (protein, part only; not given: anti-CD3 Fab, anti-5T4 scFv, linkers, not shown: another chain or arm of the molecule; small tags and cut ends) VL: DVLMTQTPLSLPVSLGDQASISCRSSQSIVHTNGNTYLEWYLQKPGQSPKLLIYRVFNRFSGVPDRFSGSGSGTEFTLKISRVEAEDLGVYYCFQGSHVPFTFGAGTKLELK VH: EVKLLQSGGGLVQPGGSLKLSCAASGIDLSRYWMSWVRRAPGKGLEWIGEINPDSSTINYAPSLKDKFIISRDNAKNTLSLQMRKVRSEDTALYFCIRRRYYGSSYWYFDVWGTGTTVTVSS | – |
| – | – | mAb009 (antibody, V domains shown, Mouse hybridoma mAb, protein A purified; also called IM, NKG2D mouse hybridoma cl- 9; NKG2D-cl-9) VH: EVKLLQSGGGLVQPGGSLKLSCAASGIDLSRYWMSWVRRAPGKGLEWIGEINPDSSTINYAPSLKDKFIISRDNAKNTLSLQMRKVRSEDTALYFCIRRRYYGSSYWYFDVWGTGTTVTVSS VL: DVLMTQTPLSLPVSLGDQASISCRSSQSIVHTNGNTYLEWYLQKPGQSPKLLIYRVFNRFSGVPDRFSGSGSGTEFTLKISRVEAEDLGVYYCFQGSHVPFTFGAGTKLELK | binding result [4]: binds |
| – | 30 nM | IM1247 CD3x5T4x NKG2D-cl-9 (H-L) (protein, part only; not given: anti-CD3 Fab, anti-5T4 scFv, linkers, not shown: another chain or arm of the molecule; small tags and cut ends) VH: EVKLLQSGGGLVQPGGSLKLSCAASGIDLSRYWMSWVRRAPGKGLEWIGEINPDSSTINYAPSLKDKFIISRDNAKNTLSLQMRKVRSEDTALYFCIRRRYYGSSYWYFDVWGTGTTVTVSS VL: DVLMTQTPLSLPVSLGDQASISCRSSQSIVHTNGNTYLEWYLQKPGQSPKLLIYRVFNRFSGVPDRFSGSGSGTEFTLKISRVEAEDLGVYYCFQGSHVPFTFGAGTKLELK | – |
| – | – | IM1091 CD3/5T4/NKG2D mut(VL-VH) (protein, part only; not given: anti-CD3 Fab, anti-5T4 scFv, linkers, not shown: another chain or arm of the molecule; small tags and cut ends) VL: QSALTQPASVSGSPGQSITISCSGSSSNIGNNAVNWYQQLPGKAPKLLIYADDLLPSGVSDRFSGSKSGTSAFLAISGLQSEDEADYYCAAWDDSLNGPVFGGGTKLTVL VH: QVQLVESGGGLVKPGGSLRLSCAASGFTFSSYGMHWVRQAPGKGLEWVAFIRYDGSNKYYADSVKGRFTISRDNSKNTLYLQMNSLRAEDTAVYYCAKDAGEGDGTYFDYWGQGTTVTVSS | activation as measured by CD107a MFI on CD56^+gated NK cells population [5]: 35 to 40% |
| – | 2.3 nM | IM1250 CD3x5T4x NKG2D-cl-19 (L-H) (protein, part only; not given: anti-CD3 Fab, anti-5T4 scFv, linkers, not shown: another chain or arm of the molecule; small tags and cut ends) VL: DILLTQSPAILSVSPGERVSFSCRASQSIGTSIHWYQQRTNVSPRLLIKYASESISGIPSRFSGSGSGTDFTLSINNVESEDIADYYCQHSNRWPLTFGAGTKLELK VH: QVQLKESGPGLVAPSQSLSITCTVSGFSLTSYAISWFRQPPGKGLECLGVIWTGGGTNYNSVFKSRLSIIKDNSKSQVFLKMNSLQTDDTARYYCARKGDEGYWGYFDVWGTGTTVTVSS | – |
| – | – | mAb019 (antibody, V domains shown, Mouse hybridoma mAb, protein A purified; also called IM, NKG2D mouse hybridoma cl- 19; NKG2D-cl-19) VH: QVQLKESGPGLVAPSQSLSITCTVSGFSLTSYAISWFRQPPGKGLECLGVIWTGGGTNYNSVFKSRLSIIKDNSKSQVFLKMNSLQTDDTARYYCARKGDEGYWGYFDVWGTGTTVTVSS VL: DILLTQSPAILSVSPGERVSFSCRASQSIGTSIHWYQQRTNVSPRLLIKYASESISGIPSRFSGSGSGTDFTLSINNVESEDIADYYCQHSNRWPLTFGAGTKLELK | binding result [6]: binds |
